{
  "source": "patent US20230374116A1",
  "binders": {"B1": {"name": "8_G11 (VHH)", "VHH": "QVQLVESGGGLVQAGGSLRLSCAASGRTITEYTIGWFRQAPGKEREFVTLISKSTDSTWDADSVKGRFTIARDYAKNTVYLQMNSLKPEDTAVYYCAAGSFYGRDSDAGGYDYWGQGTQVTVSS"}, "B2": {"name": "NbSA_D10 (VHH)", "VHH": "QVQLVESGGGLVQVGGSLRLSCAVSGRTSSDYSVGWFRRAQGKEREFVAALAWTVGATHYGDSVKGRFTVSRDNAKNMVYLQIDSLKPEDTGVYYCAGRYGAGLGFTERIYDYWGQGTQVTVSS"}, "B3": {"name": "12_F11 (VHH)", "VHH": "QVQLVESGGGLVQAGGSLRLSCAASGGAFSTSAMGWFRQAPGKEREFVAVIGWRGVRTYYADSVKGRFTIARDNPQNRVYLEMSSLKSDDTGVYFCAASDGNYGLPWAHFEYDFWGQGIQVTSS"}, "B4": {"name": "3_C5 (VHH)", "VHH": "QVQLVESGGGLVQAGGSLRLSCAASGRTLSMRRMSWFRQAPGKEREFVATINWSSGSIYVTDSVKDRFTISRDNAENTVHLQMNMLKPEDTAVYSCAVQVDIGGYLDGYDYWGQGTQVTVSS"}, "B5": {"name": "NbSA_A10 (VHH)", "VHH": "QVQLVESGGGLVQAGDSLRLSCAASGRTFSTTRMAWFRQPPGKEREFVAAIFLNTGTTYYADPVKDRFAISRDNAKNTVYLQMNSLKPEDTAVYYCAAGRFSAAPLTQSTAFESWGQGTQVTVSA"}},
  "key": {"[1]": {"molecular_target": "Beta RBD-Fc"}, "[2]": {"molecular_target": "Beta RBD"}, "[3]": {"molecular_target": "Beta RBD-Fc", "remark": "listed apart in the source"}},
  "note": "Like-named read-outs stand apart in the source and are kept apart here.",
  "data": [
    {"binder": "B1", "values": [
      {"measurement": "Kd", "setting": "[1]", "value": 0.443, "unit": "nM"},
      {"measurement": "T1/2", "setting": "[1]", "value": 20, "unit": "min"},
      {"measurement": "koff", "setting": "[1]", "value": 0.00057, "unit": "s⁻¹"},
      {"measurement": "kon", "setting": "[1]", "value": "1.3e+06", "unit": "M⁻¹ s⁻¹"}
    ]},
    {"binder": "B2", "values": [
      {"measurement": "Kd", "setting": "[2]", "value": 0.936, "unit": "nM"},
      {"measurement": "T1/2", "setting": "[3]", "value": 18, "unit": "min"},
      {"measurement": "koff", "setting": "[3]", "value": 0.0006, "unit": "s⁻¹"},
      {"measurement": "kon", "setting": "[3]", "value": 640000, "unit": "M⁻¹ s⁻¹"}
    ]},
    {"binder": "B3", "values": [
      {"measurement": "Kd", "setting": "[1]", "value": 0.236, "unit": "nM"},
      {"measurement": "T1/2", "setting": "[1]", "value": 12, "unit": "min"},
      {"measurement": "koff", "setting": "[1]", "value": 0.00096, "unit": "s⁻¹"},
      {"measurement": "kon", "setting": "[1]", "value": "4.1e+06", "unit": "M⁻¹ s⁻¹"}
    ]},
    {"binder": "B4", "values": [
      {"measurement": "Kd", "setting": "[1]", "value": 0.895, "unit": "nM"},
      {"measurement": "T1/2", "setting": "[1]", "value": 14, "unit": "min"},
      {"measurement": "koff", "setting": "[1]", "value": 0.0008, "unit": "s⁻¹"},
      {"measurement": "kon", "setting": "[1]", "value": 900000, "unit": "M⁻¹ s⁻¹"}
    ]},
    {"binder": "B5", "values": [
      {"measurement": "Kd", "setting": "[2]", "value": 0.03, "unit": "nM"}
    ]}
  ]
}
